Assay results: US20260115256A1 (HANGZHOU SCIWIND BIOSCIENCES, published 2026)
*1 amine or outer side, *2 acyl side, *3 side chain or, on linkers, in order; H or OH if unused. Bridges are numbered along the chain shown (N, C = ends). Where no end group is shown, it is not given here. Side-chain parts run from the residue outwards. [ ]: non-standard residue; d: D form. The star is where a group is joined. C20 diacid = O=C(O)CCCCCCCCCCCCCCCCCCC(=O)*; C18 diacid = O=C(O)CCCCCCCCCCCCCCCCC(=O)*; γGlu = O=C(O)[C@H](CCC(=O)[*:2])N[*:1]; Hyp = O=C(O)[C@@H]1C[C@@H](O)CN1; hArg = N=C(N)NCCCC[C@H](N)C(=O)O; Orn = NCCC[C@H](N)C(=O)O; Dab = NCC[C@H](N)C(=O)O; Dap = NC[C@H](N)C(=O)O; AEEA = NCCOCCOCC(=O)O

T1: human amylin receptor (AMY3) on CHO-K1/Ga15/AMY3 cells (human, UniProt P30988 25-474; O60896 24-148)
T1 sequence (looked up) 1: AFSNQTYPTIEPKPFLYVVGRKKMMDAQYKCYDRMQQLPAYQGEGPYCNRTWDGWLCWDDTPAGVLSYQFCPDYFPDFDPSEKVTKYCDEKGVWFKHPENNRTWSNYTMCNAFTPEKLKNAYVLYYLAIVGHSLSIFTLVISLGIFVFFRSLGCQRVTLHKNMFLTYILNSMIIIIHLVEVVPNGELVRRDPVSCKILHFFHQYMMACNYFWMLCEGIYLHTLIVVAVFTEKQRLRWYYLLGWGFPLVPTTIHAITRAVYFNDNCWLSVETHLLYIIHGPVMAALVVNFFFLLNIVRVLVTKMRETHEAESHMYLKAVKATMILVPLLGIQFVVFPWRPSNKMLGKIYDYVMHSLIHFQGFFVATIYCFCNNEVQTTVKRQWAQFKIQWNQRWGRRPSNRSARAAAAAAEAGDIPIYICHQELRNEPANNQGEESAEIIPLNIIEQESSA
T1 sequence (looked up) 2: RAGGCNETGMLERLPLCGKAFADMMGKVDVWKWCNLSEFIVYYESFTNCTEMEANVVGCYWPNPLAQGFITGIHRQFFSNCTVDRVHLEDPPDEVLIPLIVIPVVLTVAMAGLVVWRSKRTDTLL


Molecular target: T1, human amylin receptor (AMY3) on …
Test: cell-based or functional assay

Row | Binder | EC50, CRE-luciferase assay
1 | RCNTATCATQRLADFLRHSSNK([AEEA-AEEA-γGlu-C18 diacid])LGPILPPTNVGSNT[Hyp]-NH2 (disulfide 2-7 (inferred)) [PD089] | 0.018 nM
2 | RCNTATCATQRLADFLRHSK([AEEA-AEEA-γGlu-C20 diacid])NNLGPILPPTNVGSNT[Hyp]-NH2 (disulfide 2-7 (inferred)) [PD095] | 0.047 nM
3 | RCNTATCATQRLAEFLRHSSK([γGlu-C20 diacid])NLGPILPPTNVGSNTP-NH2 (disulfide 2-7 (inferred)) [PD006] | 0.129 nM
4 | RCNTATCATQRLAEFLRHSSNK([γGlu-C20 diacid])LGPILPPTNVGSNTP-NH2 (disulfide 2-7 (inferred)) [PD007] | 0.205 nM
5 | RCNTATCATQRLADFLRHSK([γGlu-C18 diacid])NNLGPILPPTNVGSNT[Hyp]-NH2 (disulfide 2-7 (inferred)) [PD096] | 0.042 nM
6 | RCNTATCATQRLADFLRHSSNNK([γGlu-C20 diacid])GPILPPTNVGSNT[Hyp]-NH2 (disulfide 2-7 (inferred)) [PD082] | 0.038 nM
7 | KCNTATCATQRLADFLRHSSNNLK([γGlu-C20 diacid])PILPPTNVGSNT[Hyp]-NH2 (disulfide 2-7 (inferred)) [PD076] | 0.04 nM
8 | ECNTATCATQRLADFLRHSSNNLK([γGlu-C20 diacid])PILPPTNVGSNT[Hyp]-NH2 (disulfide 2-7 (inferred)) [PD080] | 0.11 nM
9 | RCNTATCATQRLADFLRHSSK([AEEA-AEEA-γGlu-C18 diacid])NLGPILPPTNVGSNT[Hyp]-NH2 (disulfide 2-7 (inferred)) [PD093] | 0.019 nM
10 | {C20 diacid-γGlu}-KCNTATCATQRLADFLRHSSNNLKPILPPTNVGSNT[Hyp]-NH2 (disulfide 2-7 (inferred)) [PD071] | 0.028 nM
11 | RCNTATCATQRLADFLRHSSK([γGlu-C20 diacid])NLGPILPPTNVGSNT[Hyp]-NH2 (disulfide 2-7 (inferred)) [PD090] | 0.031 nM
12 | RCNTATCATQRLADFLRHSSNNK([AEEA-AEEA-γGlu-C20 diacid])GPILPPTNVGSNT[Hyp]-NH2 (disulfide 2-7 (inferred)) [PD083] | 0.037 nM
13 | [Orn]CNTATCATQRLADFLRHSSNNLK([γGlu-C20 diacid])PILPPTNVGSNT[Hyp]-NH2 (disulfide 2-7 (inferred)) [PD075] | 0.048 nM
14 | RCNTATCATQRLADFLRHSSNNK([γGlu-C18 diacid])GPILPPTNVGSNT[Hyp]-NH2 (disulfide 2-7 (inferred)) [PD084] | 0.008 nM
15 | [Dap]CNTATCATQRLADFLRHSSNNLK([γGlu-C20 diacid])PILPPTNVGSNT[Hyp]-NH2 (disulfide 2-7 (inferred)) [PD073] | 0.063 nM
16 | RCNTATCATQRLADFLRHSSNK([γGlu-C18 diacid])LGPILPPTNVGSNT[Hyp]-NH2 (disulfide 2-7 (inferred)) [PD088] | 0.013 nM
17 | RCNTATCATQRLADFLRHSSK([AEEA-AEEA-γGlu-C20 diacid])NLGPILPPTNVGSNT[Hyp]-NH2 (disulfide 2-7 (inferred)) [PD091] | 0.03 nM
18 | DCNTATCATQRLADFLRHSSNNLK([γGlu-C20 diacid])PILPPTNVGSNT[Hyp]-NH2 (disulfide 2-7 (inferred)) [PD079] | 0.131 nM
19 | [Dab]CNTATCATQRLADFLRHSSNNLK([γGlu-C20 diacid])PILPPTNVGSNT[Hyp]-NH2 (disulfide 2-7 (inferred)) [PD074] | 0.066 nM
20 | K([γGlu-C20 diacid])CNTATCATQRLADFLRHSSNNLKPILPPTNVGSNT[Hyp]-NH2 (disulfide 2-7 (inferred)) [PD072] | 0.027 nM
21 | RCNTATCATQRLADFLRHSK([γGlu-C20 diacid])NNLGPILPPTNVGSNT[Hyp]-NH2 (disulfide 2-7 (inferred)) [PD094] | 0.034 nM
22 | RCNTATCATQRLADFLRHSSNK([AEEA-AEEA-γGlu-C20 diacid])LGPILPPTNVGSNT[Hyp]-NH2 (disulfide 2-7 (inferred)) [PD087] | 0.032 nM
23 | HCNTATCATQRLADFLRHSSNNLK([γGlu-C20 diacid])PILPPTNVGSNT[Hyp]-NH2 (disulfide 2-7 (inferred)) [PD078] | 0.035 nM
24 | [hArg]CNTATCATQRLADFLRHSSNNLK([γGlu-C20 diacid])PILPPTNVGSNT[Hyp]-NH2 (disulfide 2-7 (inferred)) [PD077] | 0.034 nM
25 | RCNTATCATQRLADFLRHSSNNLK([AEEA-AEEA-γGlu-C20 diacid])PILPPTNVGSNT[Hyp]-NH2 (disulfide 2-7 (inferred)) [PD081] | 0.031 nM
26 | RCNTATCATQRLADFLRHSSNNK([AEEA-AEEA-γGlu-C18 diacid])GPILPPTNVGSNT[Hyp]-NH2 (disulfide 2-7 (inferred)) [PD085] | 0.005 nM
27 | RCNTATCATQRLADFLRHSSNK([γGlu-C20 diacid])LGPILPPTNVGSNT[Hyp]-NH2 (disulfide 2-7 (inferred)) [PD086] | 0.033 nM
28 | RCNTATCATQRLADFLRHSSK([γGlu-C18 diacid])NLGPILPPTNVGSNT[Hyp]-NH2 (disulfide 2-7 (inferred)) [PD092] | 0.016 nM
